{"source": "paper PMC6607443", "about": "(2019)", "data": [{"biological_target": "dynein light chain LC8 (UniProt P63167 1-89)", "sequence (P63167 whole entry)": "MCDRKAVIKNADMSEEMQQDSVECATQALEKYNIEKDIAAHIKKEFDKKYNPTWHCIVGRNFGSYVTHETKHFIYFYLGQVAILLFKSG", "experiment": "ITC", "units": {"Kd": "nM"}, "values": [{"binder": "HPETQDSSTQTDTS", "note": "[SPAG5 peptide]", "Kd": 1300}, {"binder": "EKELRHIGTQISSD", "note": "[ICE1 peptide]", "Kd": 3600}, {"binder": "ARAGRSVSTQTGSM", "note": "[CIZ1 peptide]", "Kd": 800}, {"binder": "YDSMDHLDKQTQTPKT", "note": "[CCL2 peptide]", "Kd": 4700}, {"binder": "YGCTRHQSVQTEDG", "note": "[MAST1 peptide]", "Kd": 1700}, {"binder": "PRATAEFSTQTPSP", "note": "[bassoon (BSN) peptide, modified version with the TQT motif near the C-terminus]", "Kd": 6300}, {"binder": "NQSFTTASTQTPPQ", "note": "[CAPRIN2 peptide]", "Kd": 2600}, {"binder": "APMSCDKSTQTPSP", "note": "[BCL2L11 peptide]", "Kd": 200}, {"binder": "QDFMKHLDKKTQTPKL", "note": "[CCL7 peptide]", "Kd": 2800}, {"binder": "PVLTSATGTQTSPA", "note": "[MUC3A peptide]", "Kd": 4500}, {"binder": "PAPPSYSDKGVQTPSK", "note": "[ZFPM1 peptide]", "Kd": 1600}, {"binder": "DDHSREKGTQTSGD", "note": "[SLC9A2 peptide]", "Kd": 2200}, {"binder": "SEIHGISRMTQTPQ", "note": "[RavL peptide]", "Kd": 8000}, {"binder": "SSSTRSIDTQTPSV", "note": "[GLCCI1 peptide]", "Kd": 4900}]}]}
